The target of the test is bovine brain tubulin (alpha-beta heterodimer), polymerized into taxol-stabilized microtubules (bovine) (UniProt Q6B856). Kind of test: negative stain electron microscopy.

The values below come from paper PMC4826039.

On to “KLP10A MD K350A (from UniProt Q960Z0 279-615) (domain or fragment)”, for which the percent of microtubules with rings is less than 10%. To “KLP10A MD K399A (from UniProt Q960Z0 279-615) (domain or fragment)” belongs less than 10%.
